Experimental data from patent US20150344540A1, “NOVEL GLP-1 RECEPTOR AGONISTS WITH CHOLESTEROL EFFLUX ACTIVITY” (NOVO NORDISK A/S, priority 2012, published 2015).
Where no end group is shown, it is not given here. [ ]: non-standard residue; d: D form. Aib = CC(C)(N)C(=O)O

B1: [Aib8,Glu22,Glu23,Val25,Glu34,Lys35,Val36,Lys37]-GLP-1-(7-37)-peptidyl-Glu-Leu-Leu amide (peptide)
peptide: H[Aib]EGTFTSDVSSYLEEEAVKEFIAWLVEKVKELL-NH2
modifications: N-terminus assumed
SMILES: CC[C@H](C)[C@H](NC(=O)[C@H](Cc1ccccc1)NC(=O)[C@H](CCC(=O)O)NC(=O)[C@H](CCCCN)NC(=O)[C@@H](NC(=O)[C@H](C)NC(=O)[C@H](CCC(=O)O)NC(=O)[C@H](CCC(=O)O)NC(=O)[C@H](CCC(=O)O)NC(=O)[C@H](CC(C)C)NC(=O)[C@H](Cc1ccc(O)cc1)NC(=O)[C@H](CO)NC(=O)[C@H](CO)NC(=O)[C@@H](NC(=O)[C@H](CC(=O)O)NC(=O)[C@H](CO)NC(=O)[C@@H](NC(=O)[C@H](Cc1ccccc1)NC(=O)[C@@H](NC(=O)CNC(=O)[C@H](CCC(=O)O)NC(=O)C(C)(C)NC(=O)[C@@H](N)Cc1c[nH]cn1)[C@@H](C)O)[C@@H](C)O)C(C)C)C(C)C)C(=O)N[C@@H](C)C(=O)N[C@@H](Cc1c[nH]c2ccccc12)C(=O)N[C@@H](CC(C)C)C(=O)N[C@H](C(=O)N[C@@H](CCC(=O)O)C(=O)N[C@@H](CCCCN)C(=O)N[C@H](C(=O)N[C@@H](CCCCN)C(=O)N[C@@H](CCC(=O)O)C(=O)N[C@@H](CC(C)C)C(=O)N[C@@H](CC(C)C)C(N)=O)C(C)C)C(C)C
B2: [Aib8,Glu23,Val25,Glu34,Lys35,Val36,Lys37]-GLP-1-(7-37)-peptidyl-Glu-Lys amide (peptide)
peptide: H[Aib]EGTFTSDVSSYLEGEAVKEFIAWLVEKVKEK-NH2
modifications: N-terminus assumed
SMILES: CC[C@H](C)[C@H](NC(=O)[C@H](Cc1ccccc1)NC(=O)[C@H](CCC(=O)O)NC(=O)[C@H](CCCCN)NC(=O)[C@@H](NC(=O)[C@H](C)NC(=O)[C@H](CCC(=O)O)NC(=O)CNC(=O)[C@H](CCC(=O)O)NC(=O)[C@H](CC(C)C)NC(=O)[C@H](Cc1ccc(O)cc1)NC(=O)[C@H](CO)NC(=O)[C@H](CO)NC(=O)[C@@H](NC(=O)[C@H](CC(=O)O)NC(=O)[C@H](CO)NC(=O)[C@@H](NC(=O)[C@H](Cc1ccccc1)NC(=O)[C@@H](NC(=O)CNC(=O)[C@H](CCC(=O)O)NC(=O)C(C)(C)NC(=O)[C@@H](N)Cc1c[nH]cn1)[C@@H](C)O)[C@@H](C)O)C(C)C)C(C)C)C(=O)N[C@@H](C)C(=O)N[C@@H](Cc1c[nH]c2ccccc12)C(=O)N[C@@H](CC(C)C)C(=O)N[C@H](C(=O)N[C@@H](CCC(=O)O)C(=O)N[C@@H](CCCCN)C(=O)N[C@H](C(=O)N[C@@H](CCCCN)C(=O)N[C@@H](CCC(=O)O)C(=O)N[C@@H](CCCCN)C(N)=O)C(C)C)C(C)C
B3: [Aib8,Glu23,Val25,Glu30,Glu34,Lys35,Val36,Lys37]-GLP-1-(7-37)-peptidyl-Glu-Lys-Leu amide (peptide)
peptide: H[Aib]EGTFTSDVSSYLEGEAVKEFIEWLVEKVKEKL-NH2
modifications: N-terminus assumed
SMILES: CC[C@H](C)[C@H](NC(=O)[C@H](Cc1ccccc1)NC(=O)[C@H](CCC(=O)O)NC(=O)[C@H](CCCCN)NC(=O)[C@@H](NC(=O)[C@H](C)NC(=O)[C@H](CCC(=O)O)NC(=O)CNC(=O)[C@H](CCC(=O)O)NC(=O)[C@H](CC(C)C)NC(=O)[C@H](Cc1ccc(O)cc1)NC(=O)[C@H](CO)NC(=O)[C@H](CO)NC(=O)[C@@H](NC(=O)[C@H](CC(=O)O)NC(=O)[C@H](CO)NC(=O)[C@@H](NC(=O)[C@H](Cc1ccccc1)NC(=O)[C@@H](NC(=O)CNC(=O)[C@H](CCC(=O)O)NC(=O)C(C)(C)NC(=O)[C@@H](N)Cc1c[nH]cn1)[C@@H](C)O)[C@@H](C)O)C(C)C)C(C)C)C(=O)N[C@@H](CCC(=O)O)C(=O)N[C@@H](Cc1c[nH]c2ccccc12)C(=O)N[C@@H](CC(C)C)C(=O)N[C@H](C(=O)N[C@@H](CCC(=O)O)C(=O)N[C@@H](CCCCN)C(=O)N[C@H](C(=O)N[C@@H](CCCCN)C(=O)N[C@@H](CCC(=O)O)C(=O)N[C@@H](CCCCN)C(=O)N[C@@H](CC(C)C)C(N)=O)C(C)C)C(C)C
B4: [Aib8,Glu23,Val25,Glu34,Lys35,Gly36,Lys37]-GLP-1-(7-37)-peptidyl-Glu-Phe-Leu amide (peptide)
peptide: H[Aib]EGTFTSDVSSYLEGEAVKEFIAWLVEKGKEFL-NH2
modifications: N-terminus assumed
SMILES: CC[C@H](C)[C@H](NC(=O)[C@H](Cc1ccccc1)NC(=O)[C@H](CCC(=O)O)NC(=O)[C@H](CCCCN)NC(=O)[C@@H](NC(=O)[C@H](C)NC(=O)[C@H](CCC(=O)O)NC(=O)CNC(=O)[C@H](CCC(=O)O)NC(=O)[C@H](CC(C)C)NC(=O)[C@H](Cc1ccc(O)cc1)NC(=O)[C@H](CO)NC(=O)[C@H](CO)NC(=O)[C@@H](NC(=O)[C@H](CC(=O)O)NC(=O)[C@H](CO)NC(=O)[C@@H](NC(=O)[C@H](Cc1ccccc1)NC(=O)[C@@H](NC(=O)CNC(=O)[C@H](CCC(=O)O)NC(=O)C(C)(C)NC(=O)[C@@H](N)Cc1c[nH]cn1)[C@@H](C)O)[C@@H](C)O)C(C)C)C(C)C)C(=O)N[C@@H](C)C(=O)N[C@@H](Cc1c[nH]c2ccccc12)C(=O)N[C@@H](CC(C)C)C(=O)N[C@H](C(=O)N[C@@H](CCC(=O)O)C(=O)N[C@@H](CCCCN)C(=O)NCC(=O)N[C@@H](CCCCN)C(=O)N[C@@H](CCC(=O)O)C(=O)N[C@@H](Cc1ccccc1)C(=O)N[C@@H](CC(C)C)C(N)=O)C(C)C
B5: [Aib8,Glu23,Val25,Glu34,Lys35,Val36,Lys37]-GLP-1-(7-37)-peptidyl-Asp-Phe-Leu amide (peptide)
peptide: H[Aib]EGTFTSDVSSYLEGEAVKEFIAWLVEKVKDFL-NH2
modifications: N-terminus assumed
SMILES: CC[C@H](C)[C@H](NC(=O)[C@H](Cc1ccccc1)NC(=O)[C@H](CCC(=O)O)NC(=O)[C@H](CCCCN)NC(=O)[C@@H](NC(=O)[C@H](C)NC(=O)[C@H](CCC(=O)O)NC(=O)CNC(=O)[C@H](CCC(=O)O)NC(=O)[C@H](CC(C)C)NC(=O)[C@H](Cc1ccc(O)cc1)NC(=O)[C@H](CO)NC(=O)[C@H](CO)NC(=O)[C@@H](NC(=O)[C@H](CC(=O)O)NC(=O)[C@H](CO)NC(=O)[C@@H](NC(=O)[C@H](Cc1ccccc1)NC(=O)[C@@H](NC(=O)CNC(=O)[C@H](CCC(=O)O)NC(=O)C(C)(C)NC(=O)[C@@H](N)Cc1c[nH]cn1)[C@@H](C)O)[C@@H](C)O)C(C)C)C(C)C)C(=O)N[C@@H](C)C(=O)N[C@@H](Cc1c[nH]c2ccccc12)C(=O)N[C@@H](CC(C)C)C(=O)N[C@H](C(=O)N[C@@H](CCC(=O)O)C(=O)N[C@@H](CCCCN)C(=O)N[C@H](C(=O)N[C@@H](CCCCN)C(=O)N[C@@H](CC(=O)O)C(=O)N[C@@H](Cc1ccccc1)C(=O)N[C@@H](CC(C)C)C(N)=O)C(C)C)C(C)C

Each binder was assayed against human GLP-1 receptor (human, UniProt P43220) (assay: cell-based or functional assay).

Row | Binder | CRE luciferase EC50, 0% HSA [nM] | CRE luciferase EC50, 1% HSA [nM]
1 | B1 | 0.439 | 0.11
2 | B2 | 0.043 | 0.014
3 | HGEGTFTSDVSSYLEEEAVKEFIAWLVEKVKEKL-NH2 [[Gly8,Glu22,Glu23,Val25,Glu34,Lys35,Val36,Lys37]-GLP-1-(7-37)-peptidyl-Glu-Lys-Leu amide] | 0.3 | 0.076
4 | B3 | 0.163 | 0.039
5 | B4 | 0.034 | 0.007
6 | B5 | 0.323 | 0.128
